Here are results for three variants from paper PMC7772773 (2020).

The chains are these.
B1: myc-HTR6 [mouse] / EGFP-RABL2B [human] (parent complex)
chain 1: MVPEPGPVNSSTPAWGPGPPPAPGGSGWVAAALCVVIVLTAAANSLLIALICTQPALRNTSNFFLVSLFTSDLMVGLVVMPPAMLNALYGRWVLARGLCLLWTAFDVMCCSASILNLCLISLDRYLLILSPLRYKLRMTAPRALALILGAWSLAALASFLPLLLGWHELGKARTSAPGQCRLLASLPYVLVASGVTFFLPSGAICFTYCRILLAARKQAVQVASLTTGTATAGQALETLQVPRTPRPGMESADSRRLTTKHSRKALKASLTLGILLSMFFVTWLPFFVASIAQAVCDCISPGLFDVLTWLGYCNSTMNPIIYPLFMRDFKRALGRFVPCVHCPPEHRASPASPSMWTSHSGARPGLSLQQVLPLPLPPNSDSDSASGGTSGLQLTAQLLLPGEATRDPPPPTRAPTVVNFFVTDSVEPEIRQHPLGSPMN
chain 2: MAEDKTKPSELDQGKYDADDNVKIICLGDSAVGKSKLMERFLMDGFQPQQLSTYALTLYKHTATVDGRTILVDFWDTAGQERFQSMHASYYHKAHACIMVFDVQRKVTYRNLSTWYTELREFRPEIPCIVVANKIDDINVTQKSFNFAKKFSLPLYFVSAADGTNVVKLFNDAIRLAVSYKQNSQDFMDEIFQELENFSLEQEEEDVPDQEQSSSIETPSEEAASPHS

The variants in one assay derive from B1. Put plainly: co-immunoprecipitation (IP anti-EGFP, Western blot anti-Myc), IP/input band quantitation; lysates from HEK293T cells; Input is 2.5% of lysate used for IP; parent: 100. In general terms: Immunoblotting shows a protein as a band on a membrane.
Turning to chain 1 MVPEPGPVNSSTPAWGPGPPPAPGGSGWVAAALCVVIVLTAAANSLLIALICTQPALRNTSNFFLVSLFTSDLMVGLVVMPPAMLNALYGRWVLARGLCLLWTAFDVMCCSASILNLCLISLDRYLLILSPLRYKLRMTAPRALALILGAWSLAALASFLPLLLGWHELGKARTSAPGQCRLLASLPYVLVASGVTFFLPSGAICFTYCRILLAAAAAAVQVASLTTGTATAGQALETLQVPRTPRPGMESADSRRLTTKHSRKALKASLTLGILLSMFFVTWLPFFVASIAQAVCDCISPGLFDVLTWLGYCNSTMNPIIYPLFMRDFKRALGRFVPCVHCPPEHRASPASPSMWTSHSGARPGLSLQQVLPLPLPPNSDSDSASGGTSGLQLTAQAAAPGEATRDPPPPTRAPTVVNFFVTDSVEPEIRQHPLGSPMN [chain 1 R216A, chain 1 K217A, chain 1 Q218A, chain 1 L398A, chain 1 L399A, chain 1 L400A], the percent of parent was determined as 105%. Regarding chain 1 MVPEPGPVNSSTPAWGPGPPPAPGGSGWVAAALCVVIVLTAAANSLLIALICTQPALRNTSNFFLVSLFTSDLMVGLVVMPPAMLNALYGRWVLARGLCLLWTAFDVMCCSASILNLCLISLDRYLLILSPLRYKLRMTAPRALALILGAWSLAALASFLPLLLGWHELGKARTSAPGQCRLLASLPYVLVASGVTFFLPSGAICFTYCRILLAAAAAAVQVASLTTGTATAGQALETLQVPRTPRPGMESADSRRLTTKHSRKALKASLTLGILLSMFFVTWLPFFVASIAQAVCDCISPGLFDVLTWLGYCNSTMNPIIYPLFMRDFKRALGRFVPCVHCPPEHRASPASPSMWTSHSGARPGLSLQQVLPLPLPPNSDSDSASGGTSGLQLTAQLLLPGEATRDPPPPTRAPTVVNFFVTDSVEPEIRQHPLGSPMN [chain 1 R216A, chain 1 K217A, chain 1 Q218A], the percent of parent amounted to 84%. Regarding chain 1 MVPEPGPVNSSTPAWGPGPPPAPGGSGWVAAALCVVIVLTAAANSLLIALICTQPALRNTSNFFLVSLFTSDLMVGLVVMPPAMLNALYGRWVLARGLCLLWTAFDVMCCSASILNLCLISLDRYLLILSPLRYKLRMTAPRALALILGAWSLAALASFLPLLLGWHELGKARTSAPGQCRLLASLPYVLVASGVTFFLPSGAICFTYCRILLAARKQAVQVASLTTGTATAGQALETLQVPRTPRPGMESADSRRLTTKHSRKALKASLTLGILLSMFFVTWLPFFVASIAQAVCDCISPGLFDVLTWLGYCNSTMNPIIYPLFMRDFKRALGRFVPCVHCPPEHRASPASPSMWTSHSGARPGLSLQQVLPLPLPPNSDSDSASGGTSGLQLTAQAAAPGEATRDPPPPTRAPTVVNFFVTDSVEPEIRQHPLGSPMN [chain 1 L398A, chain 1 L399A, chain 1 L400A], the percent of parent is 121%.

Variants of B1 are the subject of a further assay. The description is as above. This is another data set of the same source.
chain 1 MVPEPGPVNSSTPAWGPGPPPAPGGSGWVAAALCVVIVLTAAANSLLIALICTQPALRNTSNFFLVSLFTSDLMVGLVVMPPAMLNALYGRWVLARGLCLLWTAFDVMCCSASILNLCLISLDRYLLILSPLRYKLRMTAPRALALILGAWSLAALASFLPLLLGWHELGKARTSAPGQCRLLASLPYVLVASGVTFFLPSGAICFTYCRILLAARKQAVQVASLTTGTATAGQALETLQVPRTPRPGMESADSRRLTTKHSRKALKASLTLGILLSMFFVTWLPFFVASIAQAVCDCISPGLFDVLTWLGYCNSTMNPIIYPLFMRDFKRALGRFVPCVHCPPEHRASPASPSMWTSHSGARPGLSLQQVLPLPLPPNSDSDSASGGTSGLQLTAQAAAPGEATRDPPPPTRAPTVVNFFVTDSVEPEIRQHPLGSPMN [chain 1 L398A, chain 1 L399A, chain 1 L400A]: the percent of parent was 103%.
